# Data as given in US20130157945A1 (NEW YORK UNIVERSITY SCHOOL OF MEDICINE, published 2013).
# T1: TNFR1 (as used in the surface plasmon resonance assays) (UniProt P19438 30-211, limits assumed)
# T1 sequence (looked up): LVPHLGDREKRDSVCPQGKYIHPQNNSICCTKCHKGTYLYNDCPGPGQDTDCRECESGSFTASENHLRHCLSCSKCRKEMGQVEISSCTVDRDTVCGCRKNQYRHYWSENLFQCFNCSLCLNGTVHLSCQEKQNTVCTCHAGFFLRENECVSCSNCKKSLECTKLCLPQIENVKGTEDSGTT
# T2: TNFR2 (as used in the surface plasmon resonance assays) (UniProt P20333 23-257, limits assumed)
# T2 sequence (looked up): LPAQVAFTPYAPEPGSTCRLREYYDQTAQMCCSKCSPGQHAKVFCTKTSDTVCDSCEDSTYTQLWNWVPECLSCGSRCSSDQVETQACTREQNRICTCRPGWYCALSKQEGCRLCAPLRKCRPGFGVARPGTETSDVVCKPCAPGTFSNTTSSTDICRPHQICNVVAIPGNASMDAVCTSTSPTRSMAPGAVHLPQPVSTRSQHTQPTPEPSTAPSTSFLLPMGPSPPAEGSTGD
# B1: Atsttrin (recombinant, released from GST-Atsttrin by factor Xa) (peptide)
# chain: PQASCCEDRVHCCPHGAFCDLVHTRCITPTGTHPLAKKLPAQRTNRAVALSSSASSKENATTDLLTKLPAHTVGDVKCDMEVSCPDGYTCCRLQSGAWPWCEQGPHQVPWMEKAPAHLSLPDPQALKRDVPCDNVSSCPSSDTCCQLTSGEWGCCPIP
# notes: Expressed in bacteria as GST fusion, cleaved with factor Xa; also called Antagonist of TNF/TNFR Signaling via Targeting TNF Receptors; purified Atsttrin
# B2: FAS (yeast two-hybrid plasmid of Example 9) (receptor, UniProt P25445 26-173, looked up)
# chain: QVTDINSKGLELRKTVTTVETQNLEGLHHDGQFCHKPCPPGERKARDCTVNGDEPDCVPCQEGKEYTDKAHFSSKCRRCRLCDEGHGLEVEINCTRTQNTKCRCKPNFFCNSTVCEHCDPCTKCEHGIIKECTLTSNTKCKEEGSRSN
# B3: recombinant GEP (granulin/epithelin precursor) (ligand)
# chain: TRCPDGQFCPVACCLDPGGASYSCCRPLLDKWPTTLSRHLGGPCQVDAHCSAGHSCIFTVSGTSSCCPFPEAVACGDGHHCCPRGFHCSADGRSCFQRSGNNSVGAIQCPDSQFECPDFSTCCVMVDGSWGCCPMPQASCCEDRVHCCPHGAFCDLVHTRCITPTGTHPLAKKLPAQRTNRAVALSSSVMCPDARSRCPDGSTCCELPSGKYGCCPMPNATCCSDHLHCCPQDTVCDLIQSKCLSKENATTDLLTKLPAHTVGDVKCDMEVSCPDGYTCCRLQSGAWGCCPFTQAVCCEDHIHCCPAGFTCDTQKGTCEQGPHQVPWMEKAPAHLSLPDPQALKRDVPCDNVSSCPSSDTCCQLTSGEWGCCPIPEAVCCSDHQHCCPQRYTCVAEGQCQRGSEIVAGLEKMPARRGSLSHPRDIGCDQHTSCPVGGTCCPSQGGSWACCQLPHAVCCEDRQHCCPAGYTCNVKARSCEKEVVSAQPATFLARSPHVGVKDVECGEGHFCHDNQTCCRDNRQGWACCPYAQGVCCADRRHCCPAGFRCARRGTKCLRREAPRWDAPLRDPALRQLL
# notes: also called purified GEP; PGRN
# B4: RANK (yeast two-hybrid plasmid of Example 9) (receptor, UniProt Q9Y6Q6 30-212, looked up)
# chain: IAPPCTSEKHYEHLGRCCNKCEPGKYMSSKCTTTSDSVCLPCGPDEYLDSWNEEDKCLLHKVCDTGKALVAVVAGNSTTPRRCACTAGYHWSQDCECCRRNTECAPGLGAQHPLQLNKDTVCKPCLAGYFSDAFSSTDKCRPWTNCTFLGKRVEHHGTEKSDAVCSSSLPARKPPNEPHVYLP
# Key:
# [1] = molecular target: T1, TNFR1 (as used in the surface plasmon …); experiment: surface plasmon resonance
# [2] = molecular target: T2, TNFR2 (as used in the surface plasmon …); experiment: surface plasmon resonance
# [3] = molecular target: T1, TNFR1 (as used in the surface plasmon …); experiment: surface plasmon resonance, KD against that of TNFα/TNFR1
# [4] = molecular target: T2, TNFR2 (as used in the surface plasmon …); experiment: surface plasmon resonance, KD against that of TNFα/TNFR2
# [5] = molecular target: T3, Atsttrin (yeast two-hybrid construct in pDBleu) (human, UniProt P04386 1-147 (Saccharomyces cerevisiae entry), limits assumed); experiment: yeast two-hybrid, β-galactosidase assay
# T3 construct: domain: Gal4 DBD; also called ½A+P3+P4+½C+P5+½F; ½F-P3-P4-½A-P5-½C
# Source text: Each pair of plasmids, as indicated, was co-transformed into yeast strain MAV203. Yeast transformants were selected on SD-leu⁻/trp⁻/his⁻/ura⁻/3AT⁺ plates and tested for β-galactosidase activity. The lack of interaction between Rb and lamin was used as a negative control (Neg. CTR).
# Yeast transformants were selected on SD-leu⁻/trp⁻/his⁻/ura⁻/3AT⁺ plates and tested for β-galactosidase activity. The lack of interaction between Rb and lamin was used as a negative control.
# [6] = molecular target: T1, TNFR1 (as used in the surface plasmon …); experiment: surface plasmon resonance (SensiQ Pioneer, FastStep kinetic assay)
binder,measurement,setting,value
B1,Kd,[1],160 nM
same,Kd,[2],85.9 nM
same,fold lower affinity than TNFα,[3],~18 fold
same,fold higher binding affinity than TNFα,[4],~9 fold
B2,binding result,[5],no binding
B3,Kd,[6],1.58 nM
same,koff,[6],0.000814 s⁻¹
same,kon,[6],516000 M⁻¹ s⁻¹
B4,binding result,[5],no binding
